Source: US10179909B2, “Non-natural amino acid tRNA synthetases for pyridyl tetrazine” (priority 2013, dated 2019)
Positions count from the first letter of the chain named. Names and notes keep the numbering of the source.

B1: Clone 2A2: M. jannaschii TyrRS variant for Formula I: Y32L, L65V, H70A, F108W, Q109S, D158V, I159A, L162V (protein, listed as Methanococcus jannaschii)
chain: MDEFEMIKRNTSEIISEEELREVLKKDEKSALIGFEPSGKIHLGHYLQIKKMIDLQNAGFDIIIVLADLAAYLNQKGELDEIRKIGDYNKKVFEAMGLKAKYVYGSEWSLDKDYTLNVYRLALKTTLKRARRSMELIAREDENPKVAEVIYPIMQVNVAHYVGVDVAVGGMEQRKIHMLARELLPKKVVCIHNPVLTGLDGEGKMSSSKGNFIAVDDSPEEIRAKIKKAYCPAGVVEGNPIMEIAKYFLEYPLTIKRPEKFGGDLTVNSYEELESLFKNKELHPMDLKNAVAEELIKILEPIRKRL
modifications: wild-type (WT) tyrosyl tRNA synthetase (TyrRS), reference sequence
notes: M. jannaschii TyrRS variant for Formula I: Y32L, L65V, H70A, F108W, Q109S, D158V, I159A, L162V
B2: Clone 2A9: M. jannaschii TyrRS variant for Formula II: Y32G, L65V, H70A, Q109S, D158G, L162S (protein, listed as Methanococcus jannaschii)
chain: B1 chain with L32G, W108F, V158G, A159I, V162S
modifications: wild-type (WT) tyrosyl tRNA synthetase (TyrRS), reference sequence
notes: M. jannaschii TyrRS variant for Formula II: Y32G, L65V, H70A, Q109S, D158G, L162S

Tested on: GFP (K49TAG) amber (TAG) codon / orthogonal CUA-encoding suppressor tRNA
Test: CFPS based GFP K49TAG amber suppression assay
Format: biochemical, E. coli
Conditions: for full-length GFP expression by suppression of the TAG codon: clone titrated into CFPS reactions in the absence or presence of 4 μM non-natural amino acid; for amber suppression efficiency (levels of GFP detected): in the presence of the pyridyl-amino tetrazine compound (Formula I for 2A2, Formula II for 2A9), cell-free protein synthesis, 30° C., 12 h; for amber suppression (levels of GFP detected) without non-natural amino acid: reactions lacking the non-natural amino acid and containing the common naturally occurring amino acids
Experimental: The RS variants described herein were used to incorporate the compound of Formula I or the compound Formula II into the reporter protein Superfolder GFP. GFP containing a TAG stop codon at position 49 (GFP (K49TAG)) was expressed in a cell-free protein synthesis reaction as described in Zawada et al., 2011, Biotechnol. Bioeng., 108(7)1570-1578 with the following modifications. The cell free extracts were prepared from an OmpT sensitive RF-1 attenuated strain that was also engineered to overexpress E. coli DsbC, and a similar RF-1 attenuated E. coli strain that was engineered to produce an orthogonal CUA-encoding tRNA for insertion of a non-natural amino acid at an amber stop codon. The cell free extracts were blended (at a ratio of 85:15), and then added to a premix containing all other components of a cell-free protein synthesis system except for DNA encoding GFP (K49TAG). The final concentration in the cell-free protein synthesis reaction was 30% cell extract, with or without 2 mM non-natural amino acid (either Formula I or Formula II), 4 μM, 2 μM, 1 μM or no nnAA-specific RS variant (e.g., variant clone 1A7, 2A2, 1B7, 1B8, 2A1, 2B7, 2B5, 2A5, 2B4, 2B3, or 2A9), 8 mM magnesium glutamate, 10 mM ammonium glutamate, 130 mM potassium glutamate, 35 mM sodium pyruvate, 1.2 mM AMP, 0.86 mM each of GMP, UMP, and CMP, 2 mM amino acids (except 0.5 mM for tyrosine and phenylalanine), 4 mM sodium oxalate, 1 mM putrescine, 1.5 mM spermidine, 15 mM potassium phosphate, 100 nM T7 RNAP, 10 μg/mL GFP (K49TAG) expression template plasmid. The cell-free synthesis reactions were initiated by the addition of the plasmid DNA encoding GFP (K49TAG). The reactions were incubated at 30° C. for 12 h on a shaker at 650 rpm. After 12 hours of expression at the end point GFP fluorescence signal was measured at excitation at 476 nm, emission at 510 nm on a SpectraMax M5 fluorescence plate reader.
Similarly, clone 2A9, specific for Formula II, was titrated into the GFP-based amber supression CFPS reactions in the absence or presence of 4 μM Formula II.

Molecule | GFP levels relative to the positive GFP control reaction (reaction containing the non-natural amino acid and its specific RS clone (2A2 for Formula I, 2A9 for Formula II), control GFP has no premature stop codon) | full-length GFP expression by suppression of the TAG codon | amber suppression efficiency (levels of GFP detected) | amber suppression (levels of GFP detected) without non-natural amino acid
Cc1nnc(NCc2ccc(C[C@H](N)C(=O)O)nc2)nn1 [Formula I, (S)-2-amino-3-(5-((6-methyl-1,2,4,5-tetrazin-3-ylamino)methyl)pyridin-2-yl)propanoic acid] | comparable |  |  | 
B1 |  | expressed only in the presence of the compound of Formula I | high amber suppression efficiencies | substantially no amber supression
B2 |  | expressed only in the presence of the compound of Formula II | high amber suppression efficiencies | substantially no amber supression
